Reference: patent US20260028422A1 (CONCEPT TO MEDICINE BIOTECH, published 2026)
Like-named read-outs stand apart in the source and are kept apart here.

T1: human MerTK-his protein (human, UniProt Q12866 21-505)
T1 construct: extracellular domain; also called hMerTK-His; human MerTK protein
T1 sequence (looked up): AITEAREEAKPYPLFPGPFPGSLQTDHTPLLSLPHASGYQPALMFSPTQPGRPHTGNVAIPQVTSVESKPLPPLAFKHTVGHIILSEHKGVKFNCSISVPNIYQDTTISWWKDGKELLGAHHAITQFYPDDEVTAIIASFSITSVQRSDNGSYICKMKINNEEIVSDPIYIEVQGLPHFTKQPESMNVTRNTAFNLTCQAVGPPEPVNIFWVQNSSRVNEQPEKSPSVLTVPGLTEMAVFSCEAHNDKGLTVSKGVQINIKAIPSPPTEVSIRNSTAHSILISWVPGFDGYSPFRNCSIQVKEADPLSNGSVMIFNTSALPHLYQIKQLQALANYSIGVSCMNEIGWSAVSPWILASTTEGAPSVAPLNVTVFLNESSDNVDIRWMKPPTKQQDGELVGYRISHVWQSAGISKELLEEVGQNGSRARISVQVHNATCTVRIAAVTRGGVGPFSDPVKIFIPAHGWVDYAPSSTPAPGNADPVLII

T2: human MerTK expressed on cells (human, UniProt Q12866 21-999)
T2 construct: whole, on cells; also called CHO-K1-hMerTK; CHO-K1-MerTK
T2 sequence (looked up): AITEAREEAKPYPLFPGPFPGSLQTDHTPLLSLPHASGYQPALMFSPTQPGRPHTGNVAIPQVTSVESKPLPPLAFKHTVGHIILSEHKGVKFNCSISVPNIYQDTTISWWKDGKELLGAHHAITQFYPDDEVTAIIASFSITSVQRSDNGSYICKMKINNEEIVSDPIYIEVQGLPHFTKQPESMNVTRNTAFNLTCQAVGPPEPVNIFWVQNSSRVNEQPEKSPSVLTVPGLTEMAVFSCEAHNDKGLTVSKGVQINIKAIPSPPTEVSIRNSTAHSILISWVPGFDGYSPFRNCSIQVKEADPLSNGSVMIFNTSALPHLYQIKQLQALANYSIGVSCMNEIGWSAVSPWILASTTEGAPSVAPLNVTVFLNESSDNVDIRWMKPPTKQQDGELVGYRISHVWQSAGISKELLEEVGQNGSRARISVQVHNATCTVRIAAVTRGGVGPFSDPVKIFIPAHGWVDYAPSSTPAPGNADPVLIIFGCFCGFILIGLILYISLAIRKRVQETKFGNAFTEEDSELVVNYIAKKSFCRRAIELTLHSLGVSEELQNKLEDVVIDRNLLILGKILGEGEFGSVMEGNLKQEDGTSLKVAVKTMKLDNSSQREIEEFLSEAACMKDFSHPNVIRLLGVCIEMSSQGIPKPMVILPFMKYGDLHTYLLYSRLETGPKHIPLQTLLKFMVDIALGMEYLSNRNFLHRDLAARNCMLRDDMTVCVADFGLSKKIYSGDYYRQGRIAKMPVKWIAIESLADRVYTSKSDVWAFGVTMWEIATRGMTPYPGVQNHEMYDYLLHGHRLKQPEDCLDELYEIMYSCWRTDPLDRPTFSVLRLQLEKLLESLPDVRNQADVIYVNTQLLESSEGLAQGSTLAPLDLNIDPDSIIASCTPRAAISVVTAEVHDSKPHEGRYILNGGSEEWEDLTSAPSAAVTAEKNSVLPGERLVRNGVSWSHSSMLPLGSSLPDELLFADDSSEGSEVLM


Experiments:
human MerTK-his protein [1] = target: T1, human MerTK-his protein; assay: ELISA, plate coated with human MerTK-his, OD 450nm
Protocol: (§1) To evaluate the binding activity, the chimeric mAbs were subjected to ELISA test. Briefly, 96-well plates were coated with human or cyno MerTK-his protein at 2 μg/mL in PBS, 100 μL/well at 4° C. overnight, then blocked with 150 μL/well of 1% BSA. Five-fold dilutions of MerTK antibodies starting from 20 nM were added to each well and incubated for 1 hour at room temperature. The plates were washed with PBS/Tween-20 and then incubated with goat anti-human IgG Fe antibody conjugated with Horse Radish Peroxidase (HRP) for 30 minutes (mins) at room temperature. After washing, the plates were developed with TMB substrate and subsequent stop solution was added to complete the reaction. The signal from each well was read by spectrophotometer at OD 450 nm.
(§2) To evaluate the antigen binding activity, the humanized antibodies were subjected to ELISA test as described before.

[2] = target: T2, human MerTK expressed on cells; assay: FACS on CHO-K1 cells overexpressing human MerTK, MFI (PE)
Protocol: To evaluate the binding property to the antigen expressed on the cells, the chimeric monoclonal antibodies were analyzed for their binding to human MerTK overexpressed on CHO-K1 cells by FACS. Briefly, human MerTK overexpressing CHO-K1 (CHO-K1-MerTK) cells were firstly incubated with 5-fold serially diluted mAbs starting at 20 nM at 4° C. for 1 hour. After washing with FACS buffer, the PE conjugated anti-human IgG-Fc secondary antibody was added to each well and incubated at 4° C., for 30 mins. The mean fluorescence intensity (MFI) of PE were evaluated by QuantAnalyzer 16.
To evaluate the binding property to the antigen expressed on the cells, the humanized antibodies were analyzed by FACS as described before.

[3] = target: T2, human MerTK expressed on cells; assay: FACS on CHO-K1 cells overexpressing human MerTK, MFI (AF488)
human MerTK-his protein [4] = target: T1, human MerTK-his protein; assay: SPR Biacore 8K, antibody captured on Protein A chip, 50 nM antigen
Protocol: To explore whether the humanized antibodies could maintain their binding kinetics, affinity ranking were performed with Biacore™. The antibodies were captured with a Protein A chips. Human MerTK-his protein at 50 nM was injected over captured antibodies for 180 s at a flow rate of 30 μL/min. The antigen was allowed to dissociate for 600 s. The experiment was carried out on a Biacore™ 8K. Data analysis was carried out using Biacore™ 8K evaluation software.

human MerTK-his protein [5] = target: T1, human MerTK-his protein; assay: ELISA, plate coated with human MerTK-his, OD 450nm; remark: listed apart in the source
Protocol: as §1, §2

[6] = target: T2, human MerTK expressed on cells; assay: FACS on CHO-K1 cells overexpressing human MerTK, MFI (AF488); remark: listed apart in the source

Row | Binder | EC50 (human MerTK-his protein [1]) [nM] | EC50 [2] [nM] | EC50 [3] [nM] | Kd (human MerTK-his protein [4]) [nM] | koff (human MerTK-his protein [4]) [s⁻¹] | kon (human MerTK-his protein [4]) [M⁻¹ s⁻¹] | EC50 (human MerTK-his protein [5]) [nM] | EC50 [6] [nM]
1 | 10F7D9 Hu-1 (antibody, V domains shown, also called Hu-1 of 10F7D9) VH: QVQLVQSGSELKKPGASVKVSCKASGYTFTNYGMNWVRQAPGQGLEWMGWINTYTGEPTYADDFKGRFVFSLDTSVSTAYLQISSLKAEDTAVYYCARYGHYAWFAYWGQGTLVTVSS VL: EIVLTQSPDFQSVTPKEKVTITCRASSSVSYMHWYQQKPDQSPKLLIKATSNLASGVPSRFSGSGSGTDFTLTINSLEAEDAATYYCQQWGTKPLTFGQGTKLEIK | 0.028 | 0.29 |  |  |  |  |  | 
2 | 10F7D9 Hu-6 (antibody, V domains shown, also called Hu-6 of 10F7D9) VH: QVQLVQSGSELKKPGASVKISCKASGYTFTNYGMNWVRQAPGQGLEWMGWINTYTGEPTYADDFKGRFVFSLDTSVSTAYLQINNLKAEDTAVYFCATYGHYAWFAYWGQGTLVTVSS VL: EIVLTQSPDFQSVTPKEKVTITCRASSSVSYMHWYQQKPDQSPKLLIKATSNLASGVPSRFSGSGSGTDFTLTINSLEAEDAATYYCQQWGTKPLTFGQGTKLEIK | 0.033 | 0.45 |  |  |  |  |  | 
3 | 10F7D9 Hu-14 (antibody, V domains shown, also called Hu-14 of 10F7D9) VH: QIQLVQSGSELKKPGASVKVSCKASGYTFTNYGMNWVRQAPGQGLEWMGWINTYTGEPTYADDFKGRFVFSLDTSVSTAYLQISSLKAEDTAVYYCATYGHYAWFAYWGQGTLVTVSS VL: EIVLTQSPDFQSVTPKEKVTITCRASSSVSYMHWYQQKPDQSPKPWIYATSNLASGVPSRFSGSGSGTDFTLTINSLEAEDAATYFCQQWGTKPLTFGQGTKLEIK | 0.027 | 0.15 |  |  |  |  |  | 
4 | 10F7D9 Hu-3 (antibody, V domains shown, also called Hu-3 of 10F7D9) VH: QIQLVQSGSELKKPGASVKVSCKASGYTFTNYGMNWVRQAPGQGLEWMGWINTYTGEPTYADDFKGRFVFSLDTSVSTAYLQISSLKAEDTAVYFCATYGHYAWFAYWGQGTLVTVSS VL: EIVLTQSPDFQSVTPKEKVTITCRASSSVSYMHWYQQKPDQSPKLLIKATSNLASGVPSRFSGSGSGTDFTLTINSLEAEDAATYYCQQWGTKPLTFGQGTKLEIK | 0.034 | 1.2 |  |  |  |  |  | 
5 | 10F7D9 Hu-4 (antibody, V domains shown, also called Hu-4 of 10F7D9) VH: QIQLVQSGSELKKPGASVKVSCKASGYTFTNYGMNWVRQAPGQGLKWMGWINTYTGEPTYADDFKGRFVFSLDTSVSTAYLQISSLKAEDTAVYFCATYGHYAWFAYWGQGTLVTVSS VL: EIVLTQSPDFQSVTPKEKVTITCRASSSVSYMHWYQQKPDQSPKLLIKATSNLASGVPSRFSGSGSGTDFTLTINSLEAEDAATYYCQQWGTKPLTFGQGTKLEIK | 0.027 | 0.47 |  |  |  |  |  | 
6 | 10F7D9 Hu-8 (antibody, V domains shown, also called Hu-8 of 10F7D9) VH: QIQLVQSGSELKKPGASVKVSCKASGYTFTNYGMNWVRQAPGQGLEWMGWINTYTGEPTYADDFKGRFVFSLDTSVSTAYLQISSLKAEDTAVYYCATYGHYAWFAYWGQGTLVTVSS VL: EIVLTQSPDFQSVTPKEKVTITCRASSSVSYMHWYQQKPDQSPKPWIKATSNLASGVPSRFSGSGSGTDFTLTINSLEAEDAATYYCQQWGTKPLTFGQGTKLEIK | 0.0024 | 0.1 |  |  |  |  |  | 
7 | 265F11B5Hu-11 (antibody, V domains shown) VH: QVQLVQSGAEVKKPGASVKVSCKASGYTFTTYDINWVRQAPGQGLEWIGWIYPRDGYTKYNEKFKGRATMTTDTSTSTAYMELRSLRSDDTAVYFCTRGYYDNLYYFDYWGQGTTVTVSS VL: EIVLTQSPDFQSVTPKEKVTITCSASSIISSNYFHWYQQKPDQSPKLLIYRTSNLASGVPSRFSGSGSGTDYTLTINSLEAEDAATYYCQQGRSVPLTFGQGTKLEIK |  |  | 0.22 | 1.94 | 0.000378 | 195000 | 0.042 | 
8 | 265F11B5Hu-12 (antibody, V domains shown) VH: QVQLVQSGAEVKKPGASVKVSCKASGYTFTTYDINWVRQAPGQGLEWIGWIYPRDGYTKYNEKFKGRATLAVDTSTSTAYMELRSLRSDDTAVYFCTRGYYDNLYYFDYWGQGTTVTVSS VL: EIVLTQSPDFQSVTPKEKVTITCSASSIISSNYFHWYQQKPDQSPKLLIYRTSNLASGVPSRFSGSGSGTDYTLTINSLEAEDAATYYCQQGRSVPLTFGQGTKLEIK |  |  | 0.19 | 1.64 | 0.00031 | 189000 | 0.052 | 
9 | 254B4D9Hu-1 (antibody, V domains shown) VH: QVQLVQSGSELKKPGASVKVSCKASGYTFTAYGMSWVKQAPGQGLQWMGWINTYSGVPTYTDDFKGRFVFSLDTSVSTAFLQISSLKAEDTAVYFCARRAAVVAKYWYFDVWGQGTTVTVSS VL: DIQMTQSPSSLSASVGDRVTITCKSSQDINKRISWYQQKPGKAPKLLIHSTSSLQPGVPSRFSGSGSGRDFTFTISSLQPEDIATYFCLQYDNLLTFGQGTKLEIK | 0.094 |  |  | 2.19 | 0.000475 | 217000 |  | 0.85
10 | 254B4D9Hu-2 (antibody, V domains shown) VH: QVQLVQSGHEVKQPGASVKVSCKASGYSFTAYGMSWVKQAPGQGLQWMGWINTYSGVPTYTDDFKGRFVFSLDTSASTAFLQISSLKAEDMAMYFCARRAAVVAKYWYFDVWGQGTTVTVSS VL: DIQMTQSPSSLSASVGDRVTITCKSSQDINKRISWYQQKPGKAPKLLIHSTSSLQPGVPSRFSGSGSGRDFTFTISSLQPEDIATYFCLQYDNLLTFGQGTKLEIK | 0.064 |  |  | 10.9 | 0.000592 | 54100 |  | 1.1
